Test results from publication PMC2606041 (Structure (London, England : 1993), 2008).

B1: AbhN (N-terminal DNA-binding domain of Abh, residues 1-54) (domain or fragment, Bacillus subtilis, UniProt P39758 1-54, looked up)
chain: MKSIGVVRKVDELGRIVMPIELRRALDIAIKDSIEFFVDGDKIILKKYKPHGVC
B2: SpoVTN (N-terminal DNA-binding domain of SpoVT, residues 1-55) (domain or fragment, Bacillus subtilis, UniProt P37554 1-55, looked up)
chain: MKATGIVRRIDDLGRVVIPKEIRRTLRIREGDPLEIFVDRDGEVILKKYSPISEL

Assays:
NMR solution structure = target: the molecule itself; assay: NMR solution structure
SEC = target: the molecule itself; assay: SEC

| Protein | binding result (NMR solution structure) | stoichiometry N (SEC) |
| --- | --- | --- |
| B1 | binds | – |
| B2 | – | 2 |
